From the supplement of paper PMC5998384

Assays:
HeLa Kyoto [1] = assay: thermal stability score vs G1/S (z-score of summed log2 fold changes over temperatures); higher = more thermally stable than in G1/S
HeLa Kyoto [2] = assay: solubility change mitosis vs G1/S (difference of NP-40 vs SDS log2 ratios) (log2 ratio difference); higher = more soluble in mitosis
HeLa Kyoto [3] = assay: melting temperature (median over replicates), in situ; higher = more thermally stable
HeLa Kyoto [4] = assay: solubility in G1/S (NP-40 vs SDS abundance) (log2 ratio); higher = more soluble; details: cell cycle stage: G1/S
[5] = cell cycle stage: early G1 (4.5 h after nocodazole release)
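For melting temperature (median over replicates), in situ in this document: HeLa Kyoto cells synchronized by double thymidine or nocodazole block, proteins quantified by TMT10plex mass spectrometry, three independent biological replicates.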
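For solubility change mitosis vs G1/S (difference of NP-40 vs SDS log2 ratios) in this document: synchronized HeLa Kyoto cells (double thymidine block for G1/S, nocodazole release for mitosis), protein amounts in NP-40 versus SDS lysates quantified by mass spectrometry, three biological replicates.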
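For solubility in G1/S (NP-40 vs SDS abundance) in this document: HeLa Kyoto cells arrested at G1/S by double thymidine block, proteins quantified by TMT10plex mass spectrometry in mild NP-40 versus SDS extracts, three biological replicates.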
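For thermal stability score vs G1/S (z-score of summed log2 fold changes over temperatures) in this document: synchronized HeLa Kyoto cells, proteins quantified by TMT10plex mass spectrometry, three biological replicates, mitosis taken 0.5 h after nocodazole release, G1/S directly after double thymidine block.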

Row | Sequence | thermal stability score (HeLa Kyoto [1]; [5]) | thermal stability score (HeLa Kyoto [1]; cell cycle stage: mitosis) | solubility change mitosis (log2) (HeLa Kyoto [2]) | melting temperature (HeLa Kyoto [3]; cell cycle stage: G1/S) [°C] | melting temperature (HeLa Kyoto [3]; cell cycle stage: mitosis) [°C] | solubility in G1/S (log2) (HeLa Kyoto [4])
1 | MALYQRWRCLRLQGLQACRLHTAVVSTPPRWLAERLGLFEELWAAQVKRLASMAQKEPRTIKISLPGGQKIDAVAWNTTPYQLARQISSTLADTAVAAQVNGEPYDLERPLETDSDLRFLTFDSPEGKAVFWHSSTHVLGAAAEQFLGAVLCRGPSTEYGFYHDFFLGKERTIRGSELPVLERICQELTAAARPFRRLEASRDQLRQLFKDNPFKLHLIEEKVTGPTATVYGCGTLVDLCQGPHLRHTGQIGGLKLLSNSSSLWRSSGAPETLQRVSGISFPTTELLRVWEAWREEAELRDHRRIGKEQELFFFHELSPGSCFFLPRGTRVYNALVAFIRAEYAHRGFSEVKTPTLFSTKLWEQSGHWEHYQEDMFAVQPPGSDRPPSSQSDDSTRHITDTLALKPMNCPAHCLMFAHRPRSWRELPLRLADFGALHRAEASGGLGGLTRLRCFQQDDAHIFCTTDQLEAEIQSCLDFLRSVYAVLGFSFRLALSTRPSGFLGDPCLWDQAEQVLKQALKEFGEPWDLNSGDGAFYGPKIDVHLHDALGRPHQCGTIQLDFQLPLRFDLQYKGQAGALERPVLIHRAVLGSVERLLGVLAESCGGKWPLWLSPFQVVVIPVGSEQEEYAKEAQQSLRAAGLVSDLDADSGLTLSRRIRRAQLAHYNFQFVVGQKEQSKRTVNIRTRDNRRLGEWDLPEAVQRLVELQNTRVPNAEEIF [TARS2] | -1.35 | -0.229 | -0.134 | 51.4 | 50.8 | 0.0817
2 | MAMARLGSWLGEAQWLALVSLFVAALATVGLYLAQWALARARPQPQRRAVEPGEGPRPGSDALLSWILTLGSWRSQWQAAWVTALNEEAERKGGPPFLSFEEDPRQQALELVVQEVSSVLRSAEEKVVVCHVVGQAIQFLVSETPALGAGCRLYDMRLSPFHLQLEFHMKEKREDLQISWSFISVPEMAVNIQPKALGEDQVAETSAMSDVLKDILKHLAGSASPSVVLITKPTTVKEAQNLQCAASTAQESCPPKPPRAHELKLLVRNIHVLLLSEPGASGHINAVCVVQLNDPVQRFSSTLTKNTPDLMWEEEFTFELNAKSKELHLQISEAGRSSEGLLATATVPLDLFKKQPSGPQSFTLTSGSACGSSVLGSVTAEFSYMEPGELKSWPIPPPVPAAKIEKDRTVMPCGTVVTTVTAVKTKPRVDVGRASPLSSDSPVKTPIKVKVIEKDISVQAIACRSAPVSKTLSSSDTELLVLNGSDPVAEVAIRQLSESSKLKLKSPRKKSTIIISGISKTSLSQDHDAALMQGYTASVDSTHQEDAPSHPERAAASAPPEEAESAQASLAPKPQEDELDSWDLEKEPQAAAWSSQVLLDPDGDELSESSMSVLEPGTAKKHKGGILRKGAKLFFRRRHQQKDPGMSQSHNDLVFLEQPEGSRRKGITLTRILNKKLLSRHRNKNTMNGAPVEPCT [C2CD2] | 0.427 | 1.24 | 0.0576 | 50.9 | – | 0.0136
3 | MAMGLFRVCLVVVTAIINHPLLFPRENATVPENEEEIIRKMQAHQEKLQLEQLRLEEEVARLAAEKEALEQVAEEGRQQNETRVAWDLWSTLCMILFLMIEVWRQDHQEGPSPECLGGEEDELPGLGGAPLQGLTLPNKATLGHFYERCIRGATADAARTREFLEGFVDDLLEALRSLCNRDTDMEVEDFIGVDSMYENWQVDRPLLCHLFVPFTPPEPYRFHPELWCSGRSVPLDRQGYGQIKVVRADGDTLSCICGKTKLGEDMLCLLHGRNSMAPPCGDMENLLCATDSLYLDTMQVMKWFQTALTRAWKGIAHKYEFDLAFGQLDSPGSLKIKFRSGKFMPFNLIPVIQCDDSDLYFVSHLPREPSEGTPASSTDWLLSFAVYERHFLRTTLKALPEGACHLSCLQIASFLLSKQSRLTGPSGLSSYHLKTALLHLLLLRQAADWKAGQLDARLHELLCFLEKSLLQKKLHHFFIGNRKVPEAMGLPEAVLRAEPLNLFRPFVLQRSLYRKTLDSFYEMLKNAPALISEYSLHVPSDQPTPKS [ITPRIP] | -0.0632 | -0.00908 | -0.1 | 52 | – | 0.169
4 | MAMLRVQPEAQAKVDVFREDLCTKTENLLGSYFPKKISELDAFLKEPALNEANLSNLKAPLDIPVPDPVKEKEKEERKKQQEKEDKDEKKKGEDEDKGPPCGPVNCNEKIVVLLQRLKPEIKDVIEQLNLVTTWLQLQIPRIEDGNNFGVAVQEKVFELMTSLHTKLEGFHTQISKYFSERGDAVTKAAKQPHVGDYRQLVHELDEAEYRDIRLMVMEIRNAYAVLYDIILKNFEKLKKPRGETKGMIY [PSME1] | -2.91 | -1.23 | 0.0323 | 52.4 | 53.8 | 0.819
5 | MAMQAAKRANIRLPPEVNRILYIRNLPYKITAEEMYDIFGKYGPIRQIRVGNTPETRGTAYVVYEDIFDAKNACDHLSGFNVCNRYLVVLYYNANRAFQKMDTKKKEEQLKLLKEKYGINTDPPK [SF3B6] | -2.41 | -2.34 | 0.618 | 51.1 | 51.2 | -0.381
6 | MAMRQTPLTCSGHTRPVVDLAFSGITPYGYFLISACKDGKPMLRQGDTGDWIGTFLGHKGAVWGATLNKDATKAATAAADFTAKVWDAVSGDELMTLAHKHIVKTVDFTQDSNYLLTGGQDKLLRIYDLNKPEAEPKEISGHTSGIKKALWCSEDKQILSADDKTVRLWDHATMTEVKSLNFNMSVSSMEYIPEGEILVITYGRSIAFHSAVSLDPIKSFEAPATINSASLHPEKEFLVAGGEDFKLYKYDYNSGEELESYKGHFGPIHCVRFSPDGELYASGSEDGTLRLWQTVVGKTYGLWKCVLPEEDSGELAKPKIGFPETTEEELEEIASENSDCIFPSAPDVKA [STRAP] | -1.2 | -3.1 | -0.127 | 52.3 | 52.2 | 0.14
7 | MAMVSEFLKQAWFIENEEQEYVQTVKSSKGGPGSAVSPYPTFNPSSDVAALHKAIMVKGVDEATIIDILTKRNNAQRQQIKAAYLQETGKPLDETLKKALTGHLEEVVLALLKTPAQFDADELRAAMKGLGTDEDTLIEILASRTNKEIRDINRVYREELKRDLAKDITSDTSGDFRNALLSLAKGDRSEDFGVNEDLADSDARALYEAGERRKGTDVNVFNTILTTRSYPQLRRVFQKYTKYSKHDMNKVLDLELKGDIEKCLTAIVKCATSKPAFFAEKLHQAMKGVGTRHKALIRIMVSRSEIDMNDIKAFYQKMYGISLCQAILDETKGDYEKILVALCGGN [ANXA1] | 3.41 | 3.05 | 0.0587 | 49.1 | 49.6 | 0.618
8 | MAMVTGGWGGPGGDTNGVDKAGGYPRAAEDDSASPPGAASDAEPGDEERPGLQVDCVVCGDKSSGKHYGVFTCEGCKSFFKRSIRRNLSYTCRSNRDCQIDQHHRNQCQYCRLKKCFRVGMRKEAVQRGRIPHSLPGAVAASSGSPPGSALAAVASGGDLFPGQPVSELIAQLLRAEPYPAAAGRFGAGGGAAGAVLGIDNVCELAARLLFSTVEWARHAPFFPELPVADQVALLRLSWSELFVLNAAQAALPLHTAPLLAAAGLHAAPMAAERAVAFMDQVRAFQEQVDKLGRLQVDSAEYGCLKAIALFTPDACGLSDPAHVESLQEKAQVALTEYVRAQYPSQPQRFGRLLLRLPALRAVPASLISQLFFMRLVGKTPIETLIRDMLLSGSTFNWPYGSGQ [NR2F6] | 0.278 | 0.498 | -0.047 | 53.1 | 50.3 | 0.0616
9 | MANMQGLVERLERAVSRLESLSAESHRPPGNCGEVNGVIAGVAPSVEAFDKLMDSMVAEFLKNSRILAGDVETHAEMVHSAFQAQRAFLLMASQYQQPHENDVAALLKPISEKIQEIQTFRERNRGSNMFNHLSAVSESIPALGWIAVSPKPGPYVKEMNDAATFYTNRVLKDYKHSDLRHVDWVKSYLNIWSELQAYIKEHHTTGLTWSKTGPVASTVSAFSVLSSGPGLPPPPPPLPPPGPPPLFENEGKKEESSPSRSALFAQLNQGEAITKGLRHVTDDQKTYKNPSLRAQGGQTQSPTKSHTPSPTSPKSYPSQKHAPVLELEGKKWRVEYQEDRNDLVISETELKQVAYIFKCEKSTIQIKGKVNSIIIDNCKKLGLVFDNVVGIVEVINSQDIQIQVMGRVPTISINKTEGCHIYLSEDALDCEIVSAKSSEMNILIPQDGDYREFPIPEQFKTAWDGSKLITEPAEIMA [CAP2] | -1.54 | -2.12 | -0.179 | 51.3 | 50.3 | 0.136
10 | MANNSPALTGNSQPQHQAAAAAAQQQQQCGGGGATKPAVSGKQGNVLPLWGNEKTMNLNPMILTNILSSPYFKVQLYELKTYHEVVDEIYFKVTHVEPWEKGSRKTAGQTGMCGGVRGVGTGGIVSTAFCLLYKLFTLKLTRKQVMGLITHTDSPYIRALGFMYIRYTQPPTDLWDWFESFLDDEEDLDVKAGGGCVMTIGEMLRSFLTKLEWFSTLFPRIPVPVQKNIDQQIKTRPRKIKKDGKEGAEEIDRHVERRRSRSPRRSLSPRRSPRRSRSRSHHREGHGSSSFDRELEREKERQRLEREAKEREKERRRSRSIDRGLERRRSRSRERHRSRSRSRDRKGDRRDRDREREKENERGRRRDRDYDKERGNEREKERERSRERSKEQRSRGEVEEKKHKEDKDDRRHRDDKRDSKKEKKHSRSRSRERKHRSRSRSRNAGKRSRSRSKEKSSKHKNESKEKSNKRSRSGSQGRTDSVEKSKKREHSPSKEKSRKRSRSKERSHKRDHSDSKDQSDKHDRRRSQSIEQESQEKQHKNKDETV [PRPF38B] | 0.848 | 1.5 | 0.407 | 50 | 50.6 | -0.989
11 | MANPKEKTAMCLVNELARFNRVQPQYKLLNERGPAHSKMFSVQLSLGEQTWESEGSSIKKAQQAVANKALTESTLPKPVQKPPKSNVNNNPGSITPTVELNGLAMKRGEPAIYRPLDPKPFPNYRANYNFRGMYNQRYHCPVPKIFYVQLTVGNNEFFGEGKTRQAARHNAAMKALQALQNEPIPERSPQNGESGKDVDDDKDANKSEISLVFEIALKRNMPVSFEVIKESGPPHMKSFVTRVSVGEFSAEGEGNSKKLSKKRAATTVLQELKKLPPLPVVEKPKLFFKKRPKTIVKAGPEYGQGMNPISRLAQIQQAKKEKEPDYVLLSERGMPRRREFVMQVKVGNEVATGTGPNKKIAKKNAAEAMLLQLGYKASTNLQDQLEKTGENKGWSGPKPGFPEPTNNTPKGILHLSPDVYQEMEASRHKVISGTTLGYLSPKDMNQPSSSFFSISPTSNSSATIARELLMNGTSSTAEAIGLKGSSPTPPCSPVQPSKQLEYLARIQGFQAALSALKQFSEQGLDPIDGAMNIEKGSLEKQAKHLREKADNNQAPPGSIAQDCKKSNSAV [STAU2] | 0.426 | 1.69 | 0.169 | 49.1 | 50.3 | -0.227
12 | MANRGPAYGLSREVQQKIEKQYDADLEQILIQWITTQCRKDVGRPQPGRENFQNWLKDGTVLCELINALYPEGQAPVKKIQASTMAFKQMEQISQFLQAAERYGINTTDIFQTVDLWEGKNMACVQRTLMNLGGLAVARDDGLFSGDPNWFPKKSKENPRNFSDNQLQEGKNVIGLQMGTNRGASQAGMTGYGMPRQIL [TAGLN2] | -1.52 | -1.77 | 0.461 | 50.9 | 51.7 | 0.348
13 | MANRTVKDAHSIHGTNPQYLVEKIIRTRIYESKYWKEECFGLTAELVVDKAMELRFVGGVYGGNIKPTPFLCLTLKMLQIQPEKDIIVEFIKNEDFKYVRMLGALYMRLTGTAIDCYKYLEPLYNDYRKIKSQNRNGEFELMHVDEFIDELLHSERVCDIILPRLQKRYVLEEAEQLEPRVSALEEDMDDVESSEEEEEEDEKLERVPSPDHRRRSYRDLDKPRRSPTLRYRRSRSRSPRRRSRSPKRRSPSPRRERHRSKSPRRHRSRSRDRRHRSRSKSPGHHRSHRHRSHSKSPERSKKSHKKSRRGNE [PRPF38A] | -0.0926 | 1.13 | 0.372 | 49 | 48.6 | -1.32
